{
  "source": "paper PMC5114850",
  "about": "(Science (New York, N.Y.), 2016)",
  "target": "recombinant human calmodulin (human, UniProt P0DP23 1-149)",
  "assay": "ITC",
  "data": [
    {"binder": "Ac-EDLSSSYYRDYVKKILKKKK-NH2", "note": "[CaMBP0 peptide of zebrafish STRA6]", "values": [
      {"measurement": "Kd", "result": "2560 ± 722", "unit": "nM"},
      {"measurement": "dH", "result": "-7.8 ± 0.8", "unit": "kcal/mol"},
      {"measurement": "stoichiometry N", "result": "1.01 ± 0.07", "unit": "sites"}
    ]}
  ]
}
